From patent US8257698B2, “Protein engineering of monoacylglycerol lipase (MGLL)” (Janssen Pharmaceutica N.V., priority 2008, dated 2012)

The molecules below were run on MGLL (assay: Kinetic analysis: hydrolysis of 4-methyl coumarin butyrate (4MC-B) by MGLL constructs). Details: substrate 4MC-B; 4-5 nM MGLL, 20 mM Pipes pH 7, 150 mM NaCl, 37° C.; average of 2 or 4 separate assays.
Type: biochemical, human
Text: A small fluorescent substrate, 4-methyl coumarin butyrate (4MC-B) was used to compare the activity of the engineered mutants to the activity of wt-MGLL (hMGLL 1-303) (SEQ ID NO: 3). The catalytic efficiency (kcat/KM) for the hydrolysis of the 4MC-B was similar for wt-MGLL (hMGLL 1-303) (SEQ ID NO: 3) and all MGLL mutants tested (Table 2). A larger more aliphatic fluorescent substrate, Coumarin Arachidonate (C-A), structurally more closely related to the MGLL natural substrate, 2-AG, was used to compare the activity of wt-MGLL (hMGLL 1-303) (SEQ ID NO: 3) to TEV cleaved mut-MGLL (hMGLL 1-303 L169S, L176S) (SEQ ID NO: 5).
The Michaelis-Menten parameters for the hydrolysis of 4-methylcoumarin butyrate (4MC-B) and coumarin arachidonate (C-A) substrate were determined using 4-5 nM of MGLL in 20 mM Pipes pH 7 and 150 mM NaCl at 37° C. The change in fluorescence due to substrate hydrolysis was monitored using excitation/emission wavelengths of 335/440 in a Safire II instrument from Tecan. The hyperbolic rates versus substrate concentration curves for the hydrolysis of 4MC-B were fit to the Michaelis-Menten equation using Excel.

| Molecule | Kcat | Km |
| --- | --- | --- |
| mut-MGLL 9-297, L169S, L176S: engineered form of human MGLL, cap mutations plus truncation (protein, UniProt Q99685 9-297, looked up, variant L169S L176S) RTPQSIPYQDLPHLVNADGQYLFCRYWKPTGTPKALIFVSHGAGEHSGRYEELARMLMGLDLLVFAHDHVGHGQSEGERMVVSDFHVFVRDVLQHVDSMQKDYPGLPVFLLGHSMGGAIAILTAAERPGHFAGMVLISPLVLANPESATTFKVLAAKVLNSVLPNLSSGPIDSSVLSRNKTEVDIYNSDPLICRAGLKVCFGIQLLNAVSRVERALPKLTVPFLLLQGSADRLCDSKGAYLLMELAKSQDKTLKIYEGAYHVLHKELPEVTNSVFHEINMWVSQRTATA | 0.433 s⁻¹ | 126 µM |
| mut-MGLL 9-303, L169S, L176S: engineered form of human MGLL, cap mutations plus truncation (protein, UniProt Q99685 9-303, looked up, variant L169S L176S) RTPQSIPYQDLPHLVNADGQYLFCRYWKPTGTPKALIFVSHGAGEHSGRYEELARMLMGLDLLVFAHDHVGHGQSEGERMVVSDFHVFVRDVLQHVDSMQKDYPGLPVFLLGHSMGGAIAILTAAERPGHFAGMVLISPLVLANPESATTFKVLAAKVLNSVLPNLSSGPIDSSVLSRNKTEVDIYNSDPLICRAGLKVCFGIQLLNAVSRVERALPKLTVPFLLLQGSADRLCDSKGAYLLMELAKSQDKTLKIYEGAYHVLHKELPEVTNSVFHEINMWVSQRTATAGTASPP | 0.45 s⁻¹ | 88 µM |
| mut-MGLL 1-303, L171Q: engineered form of human MGLL, cap mutation (protein) MVDHHHHHHENLYFQGMPEESSPRRTPQSIPYQDLPHLVNADGQYLFCRYWKPTGTPKALIFVSHGAGEHSGRYEELARMLMGLDLLVFAHDHVGHGQSEGERMVVSDFHVFVRDVLQHVDSMQKDYPGLPVFLLGHSMGGAIAILTAAERPGHFAGMVLISPLVLANPESATTFKVLAAKVLNLVQPNLSLGPIDSSVLSRNKTEVDIYNSDPLICRAGLKVCFGIQLLNAVSRVERALPKLTVPFLLLQGSADRLCDSKGAYLLMELAKSQDKTLKIYEGAYHVLHKELPEVTNSVFHEINMWVSQRTATAGTASPP | 0.85 s⁻¹ | 105 µM |
| mut-MGLL. 1-303, L169S, L176S, K165A: engineered form of human MGLL, cap plus surface mutations (protein) MVDHHHHHHENLYFQGMPEESSPRRTPQSIPYQDLPHLVNADGQYLFCRYWKPTGTPKALIFVSHGAGEHSGRYEELARMLMGLDLLVFAHDHVGHGQSEGERMVVSDFHVFVRDVLQHVDSMQKDYPGLPVFLLGHSMGGAIAILTAAERPGHFAGMVLISPLVLANPESATTFKVLAAAVLNSVLPNLSSGPIDSSVLSRNKTEVDIYNSDPLICRAGLKVCFGIQLLNAVSRVERALPKLTVPFLLLQGSADRLCDSKGAYLLMELAKSQDKTLKIYEGAYHVLHKELPEVTNSVFHEINMWVSQRTATAGTASPP | 0.45 s⁻¹ | 137 µM |
| mut-MGLL 1-303, L167Q, L171Q: engineered form of human MGLL, cap mutations (protein) MVDHHHHHHENLYFQGMPEESSPRRTPQSIPYQDLPHLVNADGQYLFCRYWKPTGTPKALIFVSHGAGEHSGRYEELARMLMGLDLLVFAHDHVGHGQSEGERMVVSDFHVFVRDVLQHVDSMQKDYPGLPVFLLGHSMGGAIAILTAAERPGHFAGMVLISPLVLANPESATTFKVLAAKVQNLVQPNLSLGPIDSSVLSRNKTEVDIYNSDPLICRAGLKVCFGIQLLNAVSRVERALPKLTVPFLLLQGSADRLCDSKGAYLLMELAKSQDKTLKIYEGAYHVLHKELPEVTNSVFHEINMWVSQRTATAGTASPP | 0.983 s⁻¹ | 84 µM |
| mut-MGLL. 1-303, L167Q, L174Q: engineered form of human MGLL, cap mutations (protein) MVDHHHHHHENLYFQGMPEESSPRRTPQSIPYQDLPHLVNADGQYLFCRYWKPTGTPKALIFVSHGAGEHSGRYEELARMLMGLDLLVFAHDHVGHGQSEGERMVVSDFHVFVRDVLQHVDSMQKDYPGLPVFLLGHSMGGAIAILTAAERPGHFAGMVLISPLVLANPESATTFKVLAAKVQNLVLPNQSLGPIDSSVLSRNKTEVDIYNSDPLICRAGLKVCFGIQLLNAVSRVERALPKLTVPFLLLQGSADRLCDSKGAYLLMELAKSQDKTLKIYEGAYHVLHKELPEVTNSVFHEINMWVSQRTATAGTASPP | 1.17 s⁻¹ | 84 µM |
| mut-MGLL. 1-303, L169S, L176S, K160A: engineered form of human MGLL, cap plus surface mutations (protein) MVDHHHHHHENLYFQGMPEESSPRRTPQSIPYQDLPHLVNADGQYLFCRYWKPTGTPKALIFVSHGAGEHSGRYEELARMLMGLDLLVFAHDHVGHGQSEGERMVVSDFHVFVRDVLQHVDSMQKDYPGLPVFLLGHSMGGAIAILTAAERPGHFAGMVLISPLVLANPESATTFAVLAAKVLNSVLPNLSSGPIDSSVLSRNKTEVDIYNSDPLICRAGLKVCFGIQLLNAVSRVERALPKLTVPFLLLQGSADRLCDSKGAYLLMELAKSQDKTLKIYEGAYHVLHKELPEVTNSVFHEINMWVSQRTATAGTASPP | 0.5 s⁻¹ | 90 µM |
| mut-MGLL 1-303, L171Q, L174Q: engineered form of human MGLL, cap mutations (protein) MVDHHHHHHENLYFQGMPEESSPRRTPQSIPYQDLPHLVNADGQYLFCRYWKPTGTPKALIFVSHGAGEHSGRYEELARMLMGLDLLVFAHDHVGHGQSEGERMVVSDFHVFVRDVLQHVDSMQKDYPGLPVFLLGHSMGGAIAILTAAERPGHFAGMVLISPLVLANPESATTFKVLAAKVLNLVQPNQSLGPIDSSVLSRNKTEVDIYNSDPLICRAGLKVCFGIQLLNAVSRVERALPKLTVPFLLLQGSADRLCDSKGAYLLMELAKSQDKTLKIYEGAYHVLHKELPEVTNSVFHEINMWVSQRTATAGTASPP | 0.783 s⁻¹ | 89 µM |
| mut-MGLL 1-303, L169S, L176S, K226A: engineered form of human MGLL, cap plus surface mutations (protein) MVDHHHHHHENLYFQGMPEESSPRRTPQSIPYQDLPHLVNADGQYLFCRYWKPTGTPKALIFVSHGAGEHSGRYEELARMLMGLDLLVFAHDHVGHGQSEGERMVVSDFHVFVRDVLQHVDSMQKDYPGLPVFLLGHSMGGAIAILTAAERPGHFAGMVLISPLVLANPESATTFKVLAAKVLNSVLPNLSSGPIDSSVLSRNKTEVDIYNSDPLICRAGLKVCFGIQLLNAVSRVERALPALTVPFLLLQGSADRLCDSKGAYLLMELAKSQDKTLKIYEGAYHVLHKELPEVTNSVFHEINMWVSQRTATAGTASPP | 0.633 s⁻¹ | 110 µM |
| mut-MGLL 1-303, L169S, L176S, K36A, K226A: engineered form of human MGLL, cap plus surface mutations (protein) MVDHHHHHHENLYFQGMPEESSPRRTPQSIPYQDLPHLVNADGQYLFCRYWAPTGTPKALIFVSHGAGEHSGRYEELARMLMGLDLLVFAHDHVGHGQSEGERMVVSDFHVFVRDVLQHVDSMQKDYPGLPVFLLGHSMGGAIAILTAAERPGHFAGMVLISPLVLANPESATTFKVLAAKVLNSVLPNLSSGPIDSSVLSRNKTEVDIYNSDPLICRAGLKVCFGIQLLNAVSRVERALPALTVPFLLLQGSADRLCDSKGAYLLMELAKSQDKTLKIYEGAYHVLHKELPEVTNSVFHEINMWVSQRTATAGTASPP | 0.5 s⁻¹ | 123 µM |
| mut-MGLL 1-303, L169S, L176S, K36A: engineered human MGLL 1-303 L169S, L176S, K36A; SEQ ID NO: 6, SEQ ID NO: 7 after TEV cleavage (protein, His tag and TEV site; SEQ ID 7 after TEV cleavage; Human) MVDHHHHHHENLYFQGMPEESSPRRTPQSIPYQDLPHLVNADGQYLFCRYWAPTGTPKALIFVSHGAGEHSGRYEELARMLMGLDLLVFAHDHVGHGQSEGERMVVSDFHVFVRDVLQHVDSMQKDYPGLPVFLLGHSMGGAIAILTAAERPGHFAGMVLISPLVLANPESATTFKVLAAKVLNSVLPNLSSGPIDSSVLSRNKTEVDIYNSDPLICRAGLKVCFGIQLLNAVSRVERALPKLTVPFLLLQGSADRLCDSKGAYLLMELAKSQDKTLKIYEGAYHVLHKELPEVTNSVFHEINMWVSQRTATAGTASPP | 0.85 s⁻¹ | 124 µM |
